We go through 1 substance from patent publication US20200317739.

Data set [1] deals with truncated FBP1^185-644 protein.
The test system of data set [2] is truncated FBP1^1-371 protein.
Data set [3] relates to truncated FBP1^185-443 protein.
In data set [4] the test system is truncated FBP1^372-644 protein.
Data set [5] has as its system truncated FBP1^1-443 protein.

Regarding “purified recombinant EV71 viral protease wild-type 2A^pro”, the “in vitro proteinase cleavage assay of truncated FBP1 proteins” value is “FBP1^1-443, FBP1^185-644 and FBP1^185-443 containing the Gly-371 cleavage site were cleaved by 2A^pro; 19-kDa cleavage product, and FBP1^185-644 also yielded a 33-kDa product” in [1]; “both truncated FBP1^1-371 and FBP1^372-644 proteins were not cleaved by 2A^pro” in data set [2]; “FBP1^1-443, FBP1^185-644 and FBP1^185-443 containing the Gly-371 cleavage site were cleaved by 2A^pro; 19-kDa cleavage product” in data set [3]; “both truncated FBP1^1-371 and FBP1^372-644 proteins were not cleaved by 2A^pro” in data set [4]; “FBP1^1-443, FBP1^185-644 and FBP1^185-443 containing the Gly-371 cleavage site were cleaved by 2A^pro; a 38-kDa cleavage product was yielded from FBP1^1-443” in data set [5]. Also, the “in vitro proteinase cleavage assay (10 ug 2A^pro, 37 C, 4 hours)” value in the data set with FBP1-G345-362K was “in vitro 2A^pro cleavage occurs on mutant FBP1-G345-362K”; with FBP1-G364-380K it was “but not on mutant FBP1-G364-380K”; with FBP1-G366K it was “in comparison with FBP1-G364K, FBP1-G366K, FBP1-G374K and FBP1-G375K, FBP1-G371K could not be cleaved by 2A^pro”; in the data set with FBP1-G371K, “FBP1-G371K could not be cleaved by 2A^pro, as shown by the absence of Cp-N and Cp-C cleavage products”; with FBP1-G364K, “in comparison with FBP1-G364K, FBP1-G366K, FBP1-G374K and FBP1-G375K, FBP1-G371K could not be cleaved by 2A^pro”; in the data set with FBP1-G375K, “in comparison with FBP1-G364K, FBP1-G366K, FBP1-G374K and FBP1-G375K, FBP1-G371K could not be cleaved by 2A^pro”. Also, the “in vitro proteinase cleavage assay (10 ug 2A^pro, 37 C, 4 hours)” value in the data set on FBP1-G374K was “in comparison with FBP1-G364K, FBP1-G366K, FBP1-G374K and FBP1-G375K, FBP1-G371K could not be cleaved by 2A^pro”. Further, in the data set with wild-type FBP1 protein, the “in vitro proteinase cleavage kinetics of [35S] methionine-labeled FBP1 (data not shown)” value is “Cp-N and Cp-C were detected after 15 minutes of incubation with 2A^pro, and the levels of Cp-N and Cp-C increased over the 4 hours of incubation”. Further, the “in vitro proteinase cleavage of [35S] methionine-labeled FBP1 (SDS-PAGE, autoradiography)” value with wild-type FBP1 protein was “FBP1 was cleaved by 2A^pro in a dose-dependent manner that resulted in two major Cps, a 38-kDa Cp designated as Cp-N, and a 33-kDa Cp designated as Cp-C”.
